The values that follow come from the nanobody polyreactivity screen of Harvey et al. (2022).

This data set can be described thus: yeast display, Sf9 membrane polyspecificity reagent, FACS + sequencing; frameworks hold sequencing errors. In short, it runs like this: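 Genes from sorted yeast were amplified by colony PCR, read by MiSeq 2 × 250 sequencing and filtered on CDR length. These cells carried a synthetic nanobody library in Saccharomyces cerevisiae BJ5465 and were sorted by FACS into low and high (top ~1%) gates on anti-HA and streptavidin fluorescence. Polyreactivity is labelled according to the gate of origin.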
For “QVQLVESGGGLVQAGGSLRLSCAASGRTFYPYGMGWYRQAPGKERELVATITTGGSTNYADSVKGRFTISRDNAKTTVYLQMNSLKPEDTAVYYCAAKTRIRYYSWGQGTQVTVSS”, the “polyreactivity (PSR sort gate)” value was “low polyreactivity”.

Take “QVQLVESGGGLVQAGGSLRLSCAASGSIVSAYVMGWYRQAPGKERELVAAITRSGGSTYYADSVKGRFTISRDNAKNTVYLQMNSLKPEDTAVYYCAADRRWFAYWFDYWGQGTQVTVSS”: the “polyreactivity (PSR sort gate)” value is “low polyreactivity”.

“QVQLVESGGGLVQAGGSLRLSCAASGSTFYGNMGWYRQAPGKERELVAAITYRGTNTYYADSVKGRFTISRDNAKNTVYLQMNSLKPEDTAVYYCAAEYDVYQGRGRYYGYDYWGQGTQVTVSS”: the “polyreactivity (PSR sort gate)” value is given as “high polyreactivity”.

With “QVQLVESGGGLVQAGGILRLSCPASGSIIVFYAMGWYRQAPGKEREIVATITWSGTSTYYADSVKGRFTISRDYAKNTVYLQKNSLKPEDTAVYYCNARTVKASYVGYNYWGQGTQVTVSS”, the “polyreactivity (PSR sort gate)” value is on record as “high polyreactivity”.

On to “QVQLVESGGGLVQAGGSLRLSCAASGLTFGYYAMGWYRQAPGKERELVAAITGGGGSTYYADSVKGRFTISRDNAKNTVYLQMNSLKPEDTAVYYCAKAVYFRRKGHWYQMEYWGQGTQVTVSS”, for which the “polyreactivity (PSR sort gate)” value is listed as “low polyreactivity”.

With “QVQLVESGGGLVQAGGSLPLSCAASGFIYGGNAMGWYRQAPGKERELVAAISKSGGRTYYADSVKGRFTISRDNAKNTVYLQMNSLKPEDTAVYYCAAVPGRTAEDYGEDYWGQGTEVTVSS”, the “polyreactivity (PSR sort gate)” value was “high polyreactivity”.

Consider “QVQLVESGGGLVQAGGSLRLSCAASGSIFDYYTMGWYRQAPGKERELVATIRSGDSTNYADSVKGRFTISRDNAKNPVYVQMNSLKPEDTAVYYCAADDGAYPTLYDYWGQGTQVTVSS”, for which the “polyreactivity (PSR sort gate)” value is “low polyreactivity”.

Take “QVQLVESGGGLVQAGGSLRLSCAASGSTFAFNAMGWYRQAPGKERELVAAIYSDGSTDYADSVKGRFSISRDNAKNTVYLQMNSLKPEDPAVYYCADDWGWRYVLPVGWFRYGYWGQGTQVTVSS”: the “polyreactivity (PSR sort gate)” value was “low polyreactivity”.

On to “QDQLVESGGGLVQAGGSLRLSCAASGRTFAYNAMVWYRQAPGKERELVADITSGGSTYYADSVKGRFTISRDNPKNTVNLQMNSLKPEDTAVYDCADVRQGSFTTMDYWGQGTQVTVSS”, for which the “polyreactivity (PSR sort gate)” value is “high polyreactivity”.

Regarding “QVQLVESGGGLVQAGGSLRLSCAASGRTFWRYAMGWYRQAPGKERELVAAISVSGGTTYYADSVKGRFTISRDNAKNTVYLQMNSLKPEDTAVYYCAARYGSIYSILYYGFDYWGQGTQVTVSS”, the “polyreactivity (PSR sort gate)” value is “high polyreactivity”.

On to “QVQLVESGGGLVQAGGSLRLSCAASGRIFGYTMGWYRQAPGKERELVAAISKSGGSTYYADSVKGRFTISRDNAKNTVYLQMNSLKPEDTAVYYCAAEYGYGKRAYDSWGQGTQVTVSS”, for which the “polyreactivity (PSR sort gate)” value was “high polyreactivity”.

Regarding “QVQLVESGGGLVQAGGSLRLSWAASGLIFYWYAMGWYRQAPGKERELVAAINRGGSTYYADSVKGRFTISRDNAKNTVYLQMNSLKPEDTAVYYCAAGGYRGRKRFGWDYTYNYWGQGTQVTVSS”, the “polyreactivity (PSR sort gate)” value is given as “low polyreactivity”.

On to “QVQLVESGGGLVQAGGSLRLSCAASGRTFYVNAMGWYRQAPGKEMELVAAITNGGRTNYADSVKGRFTISRDNAKNTVYLQMNSLKPEDTAVYYCNKVSLRTQSAQFHYWGQGTQVTVSS”, for which the “polyreactivity (PSR sort gate)” value is listed as “high polyreactivity”.

Consider “QVQLVQSVGGLVHAGGSLRLSCAASGRTYGVYAMGWYRQAPGKERELVAAITYSGGSTYYADSVKGRFTISRDNAKNTVYLQMNSLKPEDTAVYYCAAETRVGLYYVREVYYWGQGTQVTVSS”, for which the “polyreactivity (PSR sort gate)” value is on record as “low polyreactivity”.

With “QVQLQESGGGLVQAGGSLRLSCAASGSIFADVQMGWYRQAPGKERELVASINFRGTTSYYADSVKGRFTISRDNAKNTVYLQMSSLKPEETEVYYCAVGRSEGGDFAYWGQGTHVTVSS”, the “polyreactivity (PSR sort gate)” value was “low polyreactivity”.

With “QVQLVESGGVLVQAGGSLRLSCAASGRTLRPYAMGWYRQAPGKERELVAAMTGGVSTDYADSVKGRFTISRDNAKNTVYLQRNSLKPEDTAVYYGAVDDRWFNHISGRYYEYYYWGQGTQVTVSS”, the “polyreactivity (PSR sort gate)” value is listed as “low polyreactivity”.

“HDQLVESGGGLVQAGGSLRLSCAASGSTFTINVMGWYRQAPGKERELVAAINGGGRTNYADSVKGRFTISRDNAKNTVYVQMNILKPEDTAVYYCAADGLSNVRQMDYWGQGTQVTVSS”: the “polyreactivity (PSR sort gate)” value is given as “low polyreactivity”.

Consider “QVQLVESGGGIVQAGGSLRLSCAASGFIFKKYVMGWYRQAPGKERELVAGISRSGGSTYYADSVKGRFTISRENAKITVYFQMNSLKPEDTAVYYGAAYIYQSPTRGGGYWGQGTQVTVSS”, for which the “polyreactivity (PSR sort gate)” value is reported as “high polyreactivity”.

For “QVQLVESGGGLVQAGGSLRLSCAASGRTFVWNAMGWYRQAPGKERELVAAITSGGSTNYADSVKGRFTISRDNAKNTVYLQMNSLKPEDTAVYYCAADWQYSPRMDYWGQGTQVTVSS”, the “polyreactivity (PSR sort gate)” value is listed as “low polyreactivity”.

Regarding “QVQLVESGGGLVQAGGSLRLSCAASGRIFWVYAMGWYRQAPGKERELVAAIDWSDGITYYADSVKGRFTISRDNAKNTVYLQMNSRKPEDTAVYYCGAEYVIYQTYNYWGQGTQVTVSS”, the “polyreactivity (PSR sort gate)” value was “high polyreactivity”.

Take “QVQLVESGGGLVQAGGSLRLSCAASGRIFFLYAMGWYRQAPGKERELVAAITKSGGSTYADSVKGRFTISLDNAKNTVYLQMNSLKPVDTAVYYCATENTECRDSGYIVKYGSDYWGQGTQVTVSS”: the “polyreactivity (PSR sort gate)” value was “low polyreactivity”.

As for “QVQLEESGGGLVQAGGSLRLSCAASGSIFAVYAKGWYRQAPGKEREFVARISWGGGRTYYADSVKGRFTISRDNAKNTVYLQMNSLKPEDTAVYYCAATFRARPRENYWGQGTQVTVSS”, the “polyreactivity (PSR sort gate)” value is “high polyreactivity”.

In the case of “QVQLVESGGGLVQAGGSLRLSCAASGSIFSYYTMGWYRQAPGKERELVAAITKSGGSTYYADSVKGRFTISRDNAKNTVYLQMNSLKPEDTAVYYCAASYGGYPKGNYWGQGTQVTVSS”, the “polyreactivity (PSR sort gate)” value was “high polyreactivity”.

In the case of “HAQLQESGGCLVQAGGSLRPSCAASGSIFRVSGMGWYRRAPGKERELVASIGFGSITYYADRVKGRFTISRDNAINTVYLQMNSLKPEDTAVYYCAVQVQDESWLDYWGQGTQVTVSC”, the “polyreactivity (PSR sort gate)” value is listed as “low polyreactivity”.

With “QVQLVESGGGLVQAGGSLRLSCAASGDTFPKYAMGWYRQAPGKERELVAAITKRGGRTYYADSVKGRFTISRDNAKNTVYLQMNRVKPEDTAVYYCAVDLDGPEYSQVHYDYWGQGTQVTVSS”, the “polyreactivity (PSR sort gate)” value was “high polyreactivity”.

As to “QVQRVESGGGLVQAGGSLRLSCAASGFTFESYAMGWYRQAHGKERELVAAITWDGGSTYYADSVKGRFTISRDNAKNTVYLQMNSLKPEDTAVYDCAADFGTISIDVYSWMDYWGQGTQVTGSS”, the “polyreactivity (PSR sort gate)” value is listed as “low polyreactivity”.

“QVQLVESGGGLVQAGGSLRLSSAASGFTFQGYVMGWYRQAPGKERELVAAISWSGGSTYYADSVKGRFTISRDTAKNTVYLQMNSLKPEDTAVYYCAAVTRFYTKYYWGQGTQVTVSS”: the “polyreactivity (PSR sort gate)” value is recorded as “high polyreactivity”.

In the case of “QLQLVESGGGLVQAGGSLRLSCAASGSIIGYYAMGWYRQAHGKERELVAAITASGGSTYYADSVKGRFTISRDNAKNTVYLQMNILKPEDTAVYYCAAGTHTDYGRYYYWGQGTQVTVSS”, the “polyreactivity (PSR sort gate)” value is “low polyreactivity”.

With “QVQLEESGGGLVQAGGSLRLSCSAYGFTFSRYDMGWYRQAPGKERELVAAISWSGGSTYYADSVKGRFTISRDNAKNSVYLQMNSLKPEDTAVYYCAKPGWSVTGESWGQGTQVTVSA”, the “polyreactivity (PSR sort gate)” value is “high polyreactivity”.

Consider “QVQLVESGGGLVQAGGSLRLSCAASGFTFARNGMGWYRQATVKEREFVAAITRSGGRTYYADSVKGRFTISRDNAKNTVYLQMNSLKPEDTAVYYCAAATSYGKSEYDYWGQGTQVTVSS”, for which the “polyreactivity (PSR sort gate)” value is “high polyreactivity”.

Consider “QVQLVESGGGLVQAGGSRRLICAASGRIYYYMGWYRQEPGQERELVAASTSSGVSTYYADSVKGRFTISRDNAKNTVDLQMNSLKPEDTAVYYCAAERVYIFWFTHEIFKYWGQGTQVTVSS”, for which the “polyreactivity (PSR sort gate)” value is “high polyreactivity”.

Take “QVQLVESGGGLVQAGGSLRLSCAASGSIFGRYGMGWYRQAPGKERELVAAITSGTRTNYADSVKGRFTISRDNAKNTVYLQLNSLKPEDTAVYYCNALRLRGNYEYGYWGLGTQVTVSS”: the “polyreactivity (PSR sort gate)” value is “low polyreactivity”.

As for “QVHLVESGGGLVQAGGSLRLSCAASGFIFRRYAMGWYRQAPGKERELVAAITSSGTSTYYADSVKGRFTISRDNAKNTVYLQMNSLKPEDAAVYFCNRDNYVRWIREDFDYWGQGTQVTVSS”, the “polyreactivity (PSR sort gate)” value is “high polyreactivity”.

Regarding “QVQLVESGACLVQAGGRLRLSCAASGRICGLNAMVWYRQAPGKERELVASITYSGGSTYYADSVKGRFTISRDNAKNTVYLQMNSLKPEYTADYYCAADSWYYWYSTYDYWGQGTQVTVSS”, the “polyreactivity (PSR sort gate)” value is reported as “high polyreactivity”.

In the case of “QVQLVESGGGLVQAGGSLRLSCAASGRTFRYYAMGWYRQAPGKERELVAAISSRGNTYYADSVKGRFTISRDNAKNTVYLQLNSLKPEDTAVYYCAAYVYRVQYDFVYWGQGTQVTVSS”, the “polyreactivity (PSR sort gate)” value is “high polyreactivity”.

As for “QVQLVESGGGLVQAGGSRRLSCAASGFTFYWYAMGWYRQAPGKERELVAAITRGGRTYYADSVKGRFTISRDNAKNTVYLQMNSLKPEDTAVYYCNAVEFTIAWCYTMDYWGQGIQVTVSS”, the “polyreactivity (PSR sort gate)” value is listed as “high polyreactivity”.

Consider “QVQLVESGGGLVQAGGSLRLICAACGYTFEHYAMGWYRQAPGKERELVAAITRSGGSTSYADSVKGRFTISRDNAKNTVFLQMNRVKPEDTAVYYCAADSIRYFDYDYWGQGPQVTVSS”, for which the “polyreactivity (PSR sort gate)” value is reported as “low polyreactivity”.

On to “QVQLVESGGGLVQAGGSLRLSCAASGRTIRWNDMGWYRQAPGKERELVAAITSRGGSTYYADSVKGRFTISRDNAMNTVYFQMNSLKPEDTAVYYCAKQPKPPPVTGYDYWGQGSQVTVSS”, for which the “polyreactivity (PSR sort gate)” value is listed as “high polyreactivity”.

Turning to “QVQLVESGGGLVQAGGSLRLSCAASGIIFVKYAMGWYRQAPGKERELVAAITSGGSTYYADSVKGRFTISRDNAKNTVYLQMNSLKPDDTAVYYCNADSWFLYYFTINGYWGQGTQVTVSS”, the “polyreactivity (PSR sort gate)” value is “high polyreactivity”.

With “QVQLVESGGGLVQAGGSLRLSCAASGSTFFYYAMGWYRQAPGKERAFVAAISSSVGTTYYADSVKGRFTISRDNAKNTVYLQMNRLKPVDTAVYYCAKASSATRYVQLRQDYDYWGQGTQVTVSS”, the “polyreactivity (PSR sort gate)” value is listed as “low polyreactivity”.

“QVQLLESGGGLVQAGGSLRLSCAASGSTFPRYVMGWYRQAPGKERELVAAISSSSGRTFYADSVKGRFTISRDNAKNTVYLQMNSLKPEDTSVYYCAARTSFNVHYWGQGTQVTVSS”: the “polyreactivity (PSR sort gate)” value is “high polyreactivity”.
